According to the supplement of paper PMC9112550, “Optimization of the antimicrobial peptide Bac7 by deep mutational scanning” (BMC Biology, 2022):

System: Escherichia coli TOP10
Experiment: shrunken log2 fold change of peptide-encoding DNA abundance (4.5 h post-induction vs induction); higher = less antimicrobial activity (less host growth inhibition)
Settings: time post-induction: 4.5 h; library: site-saturation at positions 5, 18, 19, 20
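Note: peptides expressed intracellularly from a pBAD plasmid library in pooled LB shake-flask culture, induced with 0.3% L-arabinose, DNA abundance read by NGS, three biological replicates, DESeq2 with apeglm shrinkage.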

Q: How did the “shrunken log2 fold change” value turn out when RRIRDRPPRLPRPRPRPFFWPRP was run?
A: Its value is 0.504.

Q: RRIRVRPPRLPRPRPRPVYTPRP was tested. Which “shrunken log2 fold change” value did it give?
A: The value was -0.324.

Q: How did the “shrunken log2 fold change” value turn out when RRIRMRPPRLPRPRPRPEKNPRP was run?
A: The value was 2.16.

Q: Which “shrunken log2 fold change” value does the source give for RRIRKRPPRLPRPRPRPQFSPRP here?
A: The value was 0.0164.

Q: With RRIRTRPPRLPRPRPRPYVFPRP as the sequence, how does the “shrunken log2 fold change” value read?
A: Its value is -0.394.

Q: With RRIRPRPPRLPRPRPRPVRQPRP as the sequence, how does the “shrunken log2 fold change” value read?
A: The value was 0.219.

Q: Which “shrunken log2 fold change” value does the source give for RRIRVRPPRLPRPRPRPQGKPRP here?
A: The value was 0.00549.

Q: For RRIRMRPPRLPRPRPRPMCGPRP, which “shrunken log2 fold change” value is on record?
A: The value was 0.00224.

Q: How did the “shrunken log2 fold change” value turn out when RRIRRRPPRLPRPRPRPKKWPRP was run?
A: The value was 0.114.

Q: With RRIRPRPPRLPRPRPRPDKPPRP as the sequence, how does the “shrunken log2 fold change” value read?
A: The value was -0.233.

Q: Which “shrunken log2 fold change” value does the source give for RRIRWRPPRLPRPRPRPYYSPRP here?
A: Its value is -0.181.

Q: Which “shrunken log2 fold change” value does the source give for RRIRQRPPRLPRPRPRPSQWPRP here?
A: Its value is -0.02.

Q: RRIRKRPPRLPRPRPRPQWHPRP was tested. Which “shrunken log2 fold change” value did it give?
A: The value was 0.104.

Q: Which “shrunken log2 fold change” value does the source give for RRIRFRPPRLPRPRPRPGVKPRP here?
A: Its value is -0.0657.

Q: With RRIRRRPPRLPRPRPRPDQHPRP as the sequence, how does the “shrunken log2 fold change” value read?
A: The value was 0.552.

Q: Which “shrunken log2 fold change” value does the source give for RRIRTRPPRLPRPRPRPEACPRP here?
A: Its value is -0.1.

Q: How did the “shrunken log2 fold change” value turn out when RRIRRRPPRLPRPRPRPAKKPRP was run?
A: Its value is 1.04.

Q: How did the “shrunken log2 fold change” value turn out when RRIRTRPPRLPRPRPRPPDIPRP was run?
A: The value was -0.118.

Q: With RRIRHRPPRLPRPRPRPTHFPRP as the sequence, how does the “shrunken log2 fold change” value read?
A: The value was 0.176.

Q: How did the “shrunken log2 fold change” value turn out when RRIRFRPPRLPRPRPRPINKPRP was run?
A: The value was -0.582.

Q: With RRIRSRPPRLPRPRPRPRPMPRP as the sequence, how does the “shrunken log2 fold change” value read?
A: Its value is 0.498.

Q: With RRIRFRPPRLPRPRPRPPTHPRP as the sequence, how does the “shrunken log2 fold change” value read?
A: Its value is 0.22.

Q: How did the “shrunken log2 fold change” value turn out when RRIRSRPPRLPRPRPRPCLKPRP was run?
A: Its value is 0.0091.

Q: For RRIRYRPPRLPRPRPRPWFIPRP, which “shrunken log2 fold change” value is on record?
A: The value was -0.054.

Q: How did the “shrunken log2 fold change” value turn out when RRIRARPPRLPRPRPRPRYCPRP was run?
A: The value was -0.15.

Q: With RRIRIRPPRLPRPRPRPSTEPRP as the sequence, how does the “shrunken log2 fold change” value read?
A: The value was -0.388.

Q: How did the “shrunken log2 fold change” value turn out when RRIRTRPPRLPRPRPRPCAAPRP was run?
A: The value was 0.0451.

Q: RRIRRRPPRLPRPRPRPWWGPRP was tested. Which “shrunken log2 fold change” value did it give?
A: The value was 0.288.

Q: Which “shrunken log2 fold change” value does the source give for RRIRVRPPRLPRPRPRPVIQPRP here?
A: The value was -0.336.

Q: For RRIRLRPPRLPRPRPRPVTYPRP, which “shrunken log2 fold change” value is on record?
A: The value was -0.0255.

Q: Which “shrunken log2 fold change” value does the source give for RRIRARPPRLPRPRPRPCEFPRP here?
A: The value was 0.168.

Q: RRIRKRPPRLPRPRPRPNTSPRP was tested. Which “shrunken log2 fold change” value did it give?
A: The value was 0.0472.

Q: With RRIRDRPPRLPRPRPRPEWMPRP as the sequence, how does the “shrunken log2 fold change” value read?
A: The value was 0.764.

Q: With RRIRNRPPRLPRPRPRPEFKPRP as the sequence, how does the “shrunken log2 fold change” value read?
A: The value was -0.0932.

Q: RRIRWRPPRLPRPRPRPHNSPRP was tested. Which “shrunken log2 fold change” value did it give?
A: Its value is -0.394.

Q: How did the “shrunken log2 fold change” value turn out when RRIRERPPRLPRPRPRPKPLPRP was run?
A: Its value is 0.104.

Q: For RRIRHRPPRLPRPRPRPTCPPRP, which “shrunken log2 fold change” value is on record?
A: The value was 0.0464.

Q: Which “shrunken log2 fold change” value does the source give for RRIRERPPRLPRPRPRPVEEPRP here?
A: The value was -0.127.

Q: How did the “shrunken log2 fold change” value turn out when RRIRARPPRLPRPRPRPWQTPRP was run?
A: The value was 0.0127.

Q: Which “shrunken log2 fold change” value does the source give for RRIRTRPPRLPRPRPRPPSQPRP here?
A: The value was 0.269.

Q: How did the “shrunken log2 fold change” value turn out when RRIRCRPPRLPRPRPRPDEFPRP was run?
A: Its value is -0.169.

Q: How did the “shrunken log2 fold change” value turn out when RRIRNRPPRLPRPRPRPNCSPRP was run?
A: The value was 7.72e-05.

Q: How did the “shrunken log2 fold change” value turn out when RRIRMRPPRLPRPRPRPCGHPRP was run?
A: Its value is 0.0237.

Q: With RRIRLRPPRLPRPRPRPFVGPRP as the sequence, how does the “shrunken log2 fold change” value read?
A: Its value is 4.94e-06.

Q: For RRIRYRPPRLPRPRPRPRQTPRP, which “shrunken log2 fold change” value is on record?
A: Its value is -0.0574.

Q: RRIRIRPPRLPRPRPRPTNLPRP was tested. Which “shrunken log2 fold change” value did it give?
A: The value was -0.606.

Q: With RRIRTRPPRLPRPRPRPSRPPRP as the sequence, how does the “shrunken log2 fold change” value read?
A: Its value is 0.202.

Q: RRIRFRPPRLPRPRPRPREMPRP was tested. Which “shrunken log2 fold change” value did it give?
A: The value was 0.286.

Q: How did the “shrunken log2 fold change” value turn out when RRIRARPPRLPRPRPRPTKYPRP was run?
A: Its value is -0.114.

Q: How did the “shrunken log2 fold change” value turn out when RRIRSRPPRLPRPRPRPWGCPRP was run?
A: Its value is 0.032.

Q: For RRIRARPPRLPRPRPRPHLYPRP, which “shrunken log2 fold change” value is on record?
A: Its value is -0.218.

Q: For RRIRLRPPRLPRPRPRPPNRPRP, which “shrunken log2 fold change” value is on record?
A: Its value is 0.0237.

Q: With RRIRSRPPRLPRPRPRPDGPPRP as the sequence, how does the “shrunken log2 fold change” value read?
A: Its value is 0.0211.

Q: RRIRYRPPRLPRPRPRPDCAPRP was tested. Which “shrunken log2 fold change” value did it give?
A: Its value is -0.218.

Q: Which “shrunken log2 fold change” value does the source give for RRIRSRPPRLPRPRPRPACRPRP here?
A: Its value is 0.212.

Q: RRIRTRPPRLPRPRPRPVYPPRP was tested. Which “shrunken log2 fold change” value did it give?
A: Its value is -0.00118.

Q: Which “shrunken log2 fold change” value does the source give for RRIRKRPPRLPRPRPRPFCLPRP here?
A: Its value is -0.0107.

Q: RRIRGRPPRLPRPRPRPYGMPRP was tested. Which “shrunken log2 fold change” value did it give?
A: Its value is 0.036.

Q: Which “shrunken log2 fold change” value does the source give for RRIRIRPPRLPRPRPRPIMRPRP here?
A: The value was 0.139.

Q: For RRIRGRPPRLPRPRPRPYNGPRP, which “shrunken log2 fold change” value is on record?
A: Its value is -0.0131.

Q: RRIRKRPPRLPRPRPRPAGYPRP was tested. Which “shrunken log2 fold change” value did it give?
A: Its value is 0.0743.

Q: How did the “shrunken log2 fold change” value turn out when RRIRVRPPRLPRPRPRPQTVPRP was run?
A: The value was -0.0217.

Q: RRIRARPPRLPRPRPRPLFKPRP was tested. Which “shrunken log2 fold change” value did it give?
A: The value was 0.117.

Q: RRIRKRPPRLPRPRPRPNCWPRP was tested. Which “shrunken log2 fold change” value did it give?
A: The value was 0.621.

Q: How did the “shrunken log2 fold change” value turn out when RRIRCRPPRLPRPRPRPYRMPRP was run?
A: The value was -0.197.

Q: Which “shrunken log2 fold change” value does the source give for RRIRVRPPRLPRPRPRPNIVPRP here?
A: Its value is 0.000276.

Q: RRIRVRPPRLPRPRPRPINAPRP was tested. Which “shrunken log2 fold change” value did it give?
A: Its value is -0.174.

Q: How did the “shrunken log2 fold change” value turn out when RRIRYRPPRLPRPRPRPCTEPRP was run?
A: The value was -0.531.

Q: How did the “shrunken log2 fold change” value turn out when RRIRIRPPRLPRPRPRPTPFPRP was run?
A: Its value is -0.133.

Q: RRIRNRPPRLPRPRPRPPLWPRP was tested. Which “shrunken log2 fold change” value did it give?
A: The value was 0.539.

Q: How did the “shrunken log2 fold change” value turn out when RRIRVRPPRLPRPRPRPMQKPRP was run?
A: The value was 0.533.

Q: For RRIRIRPPRLPRPRPRPLGCPRP, which “shrunken log2 fold change” value is on record?
A: The value was -0.0574.

Q: RRIRSRPPRLPRPRPRPIESPRP was tested. Which “shrunken log2 fold change” value did it give?
A: The value was -0.385.

Q: How did the “shrunken log2 fold change” value turn out when RRIRGRPPRLPRPRPRPKYWPRP was run?
A: The value was 1.13.

Q: RRIRKRPPRLPRPRPRPAVCPRP was tested. Which “shrunken log2 fold change” value did it give?
A: The value was 0.356.
